B4: MukF (E. coli kleisin of MukBEF) (natural protein)
chain: MSEFSQTVPELVAWARKNDFSISLPVDRLSFLLAVATLNGERLDGEMSEGELVDAFRHVSDAFEQTSETIGVRANNAINDMVRQRLLNRFTSEQAEGNAIYRLTPLGIGITDYYIRQREFSTLRLSMQLSIVAGELKRAADAAEEGGDEFHWHRNVYAPLKYSVAEIFDSIDLTQRLMDEQQQQVKDDIAQLLNKDWRAAISSCELLLSETSGTLRELQDTLEAAGDKLQANLLRIQDATMTHDDLHFVDRLVFDLQSKLDRIISWGQQSIDLWIGYDRHVHKFIRTAIDMDKNRVFAQRLRQSVQTYFDEPWALTYANADRLLDMRDEEMALRDEEVTGELPEDLEYEEFNEIREQLAAIIEEQLAVYKTRQVPLDLGLVVREYLSQYPRARHFDVARIVIDQAVRLGVAQADFTGLPAKWQPINDYGAKVQAHVIDKY

For experiment [1], the target named is Smc1-Smc3-Scc1 trimer (S. cerevisiae cohesin) (S. cerevisiae, UniProt P32908;P47037;Q12158). The experiment in a line: SEC. Background: In gel filtration, larger molecules generally elute earlier.
Sequence of Smc1-Smc3-Scc1 trimer (S. cerevisiae cohesin) (P32908 whole entry, chain 1 of 3): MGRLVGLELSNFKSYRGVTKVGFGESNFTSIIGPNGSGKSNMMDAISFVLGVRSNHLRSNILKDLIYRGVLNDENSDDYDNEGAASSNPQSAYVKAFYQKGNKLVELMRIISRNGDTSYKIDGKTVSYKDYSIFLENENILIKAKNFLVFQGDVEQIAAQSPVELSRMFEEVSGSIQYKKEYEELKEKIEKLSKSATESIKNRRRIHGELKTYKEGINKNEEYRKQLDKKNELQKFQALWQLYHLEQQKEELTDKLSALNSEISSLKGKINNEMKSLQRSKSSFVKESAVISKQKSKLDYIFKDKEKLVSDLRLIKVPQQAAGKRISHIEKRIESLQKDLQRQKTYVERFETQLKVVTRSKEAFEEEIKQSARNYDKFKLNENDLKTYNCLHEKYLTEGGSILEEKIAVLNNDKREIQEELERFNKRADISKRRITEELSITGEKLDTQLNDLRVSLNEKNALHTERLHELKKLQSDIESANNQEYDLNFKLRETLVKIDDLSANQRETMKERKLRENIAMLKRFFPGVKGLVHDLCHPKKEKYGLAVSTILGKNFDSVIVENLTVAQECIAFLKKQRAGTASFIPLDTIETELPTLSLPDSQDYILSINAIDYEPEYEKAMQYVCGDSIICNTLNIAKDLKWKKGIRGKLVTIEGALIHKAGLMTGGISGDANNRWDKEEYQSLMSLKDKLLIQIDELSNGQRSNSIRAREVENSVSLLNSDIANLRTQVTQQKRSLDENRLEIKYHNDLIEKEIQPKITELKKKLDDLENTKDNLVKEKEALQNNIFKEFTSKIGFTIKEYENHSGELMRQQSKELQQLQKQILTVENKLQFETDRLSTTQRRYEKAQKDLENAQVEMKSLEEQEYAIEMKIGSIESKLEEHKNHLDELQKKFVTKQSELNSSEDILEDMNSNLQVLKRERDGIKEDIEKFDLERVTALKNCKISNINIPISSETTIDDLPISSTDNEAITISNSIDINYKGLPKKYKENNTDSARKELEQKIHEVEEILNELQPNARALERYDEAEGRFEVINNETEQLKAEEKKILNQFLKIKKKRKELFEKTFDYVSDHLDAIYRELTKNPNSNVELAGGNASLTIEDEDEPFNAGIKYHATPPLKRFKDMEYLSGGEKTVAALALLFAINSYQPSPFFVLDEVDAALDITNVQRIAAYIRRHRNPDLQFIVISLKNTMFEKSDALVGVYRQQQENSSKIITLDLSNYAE
Sequence of Smc1-Smc3-Scc1 trimer (S. cerevisiae cohesin) (P47037 whole entry, chain 2 of 3): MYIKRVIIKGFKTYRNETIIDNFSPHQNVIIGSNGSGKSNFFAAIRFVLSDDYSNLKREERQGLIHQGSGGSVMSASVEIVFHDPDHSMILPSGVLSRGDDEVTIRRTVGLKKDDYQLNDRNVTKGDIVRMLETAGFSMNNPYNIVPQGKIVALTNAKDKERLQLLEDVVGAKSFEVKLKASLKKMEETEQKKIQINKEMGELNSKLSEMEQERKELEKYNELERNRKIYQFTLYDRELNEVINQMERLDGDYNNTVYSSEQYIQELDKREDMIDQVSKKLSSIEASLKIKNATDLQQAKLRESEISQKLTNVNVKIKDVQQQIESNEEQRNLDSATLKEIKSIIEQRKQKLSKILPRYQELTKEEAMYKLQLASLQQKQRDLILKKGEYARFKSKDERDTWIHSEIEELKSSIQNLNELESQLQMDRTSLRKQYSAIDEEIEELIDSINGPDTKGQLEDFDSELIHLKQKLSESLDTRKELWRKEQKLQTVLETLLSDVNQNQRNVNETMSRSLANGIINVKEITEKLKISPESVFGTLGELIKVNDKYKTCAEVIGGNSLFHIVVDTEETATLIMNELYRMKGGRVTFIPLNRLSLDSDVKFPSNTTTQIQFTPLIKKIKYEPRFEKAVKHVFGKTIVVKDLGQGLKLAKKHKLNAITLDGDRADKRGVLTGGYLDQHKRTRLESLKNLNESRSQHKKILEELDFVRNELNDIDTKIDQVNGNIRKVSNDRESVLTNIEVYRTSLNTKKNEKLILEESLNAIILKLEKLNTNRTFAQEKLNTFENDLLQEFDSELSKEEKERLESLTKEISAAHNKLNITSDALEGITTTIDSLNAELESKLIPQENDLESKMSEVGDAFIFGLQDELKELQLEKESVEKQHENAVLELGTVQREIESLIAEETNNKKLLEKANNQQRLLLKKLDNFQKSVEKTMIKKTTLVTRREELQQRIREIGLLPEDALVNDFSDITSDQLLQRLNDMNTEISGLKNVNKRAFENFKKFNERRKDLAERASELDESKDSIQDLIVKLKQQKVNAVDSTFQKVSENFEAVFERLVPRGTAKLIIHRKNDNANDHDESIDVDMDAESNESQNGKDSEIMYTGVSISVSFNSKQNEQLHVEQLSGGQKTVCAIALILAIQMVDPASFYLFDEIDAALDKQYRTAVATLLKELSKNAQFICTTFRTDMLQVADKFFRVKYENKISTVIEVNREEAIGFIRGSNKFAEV
Sequence of Smc1-Smc3-Scc1 trimer (S. cerevisiae cohesin) (Q12158 whole entry, chain 3 of 3): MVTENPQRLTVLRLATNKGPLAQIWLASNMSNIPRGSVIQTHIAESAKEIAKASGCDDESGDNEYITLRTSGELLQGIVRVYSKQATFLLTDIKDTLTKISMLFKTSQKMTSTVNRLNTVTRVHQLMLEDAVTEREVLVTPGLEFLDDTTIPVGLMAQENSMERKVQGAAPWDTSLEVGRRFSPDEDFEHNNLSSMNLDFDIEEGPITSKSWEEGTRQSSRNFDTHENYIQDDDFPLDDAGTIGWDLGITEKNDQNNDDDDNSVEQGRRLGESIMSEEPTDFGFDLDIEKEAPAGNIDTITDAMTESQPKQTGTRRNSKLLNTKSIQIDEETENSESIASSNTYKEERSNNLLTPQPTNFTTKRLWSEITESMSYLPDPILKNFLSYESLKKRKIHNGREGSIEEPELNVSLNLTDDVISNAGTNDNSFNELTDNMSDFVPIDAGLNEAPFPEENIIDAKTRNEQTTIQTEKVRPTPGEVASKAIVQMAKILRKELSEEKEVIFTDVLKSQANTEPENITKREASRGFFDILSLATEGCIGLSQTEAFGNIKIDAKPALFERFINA
Experiment [2] concerns the target B4. Nature of the experiment: cross-linking.
Experiment [3] concerns the target T1, MukB (E. coli SMC protein of MukBEF) (E. coli, UniProt P22523 1-1486).
T1 sequence: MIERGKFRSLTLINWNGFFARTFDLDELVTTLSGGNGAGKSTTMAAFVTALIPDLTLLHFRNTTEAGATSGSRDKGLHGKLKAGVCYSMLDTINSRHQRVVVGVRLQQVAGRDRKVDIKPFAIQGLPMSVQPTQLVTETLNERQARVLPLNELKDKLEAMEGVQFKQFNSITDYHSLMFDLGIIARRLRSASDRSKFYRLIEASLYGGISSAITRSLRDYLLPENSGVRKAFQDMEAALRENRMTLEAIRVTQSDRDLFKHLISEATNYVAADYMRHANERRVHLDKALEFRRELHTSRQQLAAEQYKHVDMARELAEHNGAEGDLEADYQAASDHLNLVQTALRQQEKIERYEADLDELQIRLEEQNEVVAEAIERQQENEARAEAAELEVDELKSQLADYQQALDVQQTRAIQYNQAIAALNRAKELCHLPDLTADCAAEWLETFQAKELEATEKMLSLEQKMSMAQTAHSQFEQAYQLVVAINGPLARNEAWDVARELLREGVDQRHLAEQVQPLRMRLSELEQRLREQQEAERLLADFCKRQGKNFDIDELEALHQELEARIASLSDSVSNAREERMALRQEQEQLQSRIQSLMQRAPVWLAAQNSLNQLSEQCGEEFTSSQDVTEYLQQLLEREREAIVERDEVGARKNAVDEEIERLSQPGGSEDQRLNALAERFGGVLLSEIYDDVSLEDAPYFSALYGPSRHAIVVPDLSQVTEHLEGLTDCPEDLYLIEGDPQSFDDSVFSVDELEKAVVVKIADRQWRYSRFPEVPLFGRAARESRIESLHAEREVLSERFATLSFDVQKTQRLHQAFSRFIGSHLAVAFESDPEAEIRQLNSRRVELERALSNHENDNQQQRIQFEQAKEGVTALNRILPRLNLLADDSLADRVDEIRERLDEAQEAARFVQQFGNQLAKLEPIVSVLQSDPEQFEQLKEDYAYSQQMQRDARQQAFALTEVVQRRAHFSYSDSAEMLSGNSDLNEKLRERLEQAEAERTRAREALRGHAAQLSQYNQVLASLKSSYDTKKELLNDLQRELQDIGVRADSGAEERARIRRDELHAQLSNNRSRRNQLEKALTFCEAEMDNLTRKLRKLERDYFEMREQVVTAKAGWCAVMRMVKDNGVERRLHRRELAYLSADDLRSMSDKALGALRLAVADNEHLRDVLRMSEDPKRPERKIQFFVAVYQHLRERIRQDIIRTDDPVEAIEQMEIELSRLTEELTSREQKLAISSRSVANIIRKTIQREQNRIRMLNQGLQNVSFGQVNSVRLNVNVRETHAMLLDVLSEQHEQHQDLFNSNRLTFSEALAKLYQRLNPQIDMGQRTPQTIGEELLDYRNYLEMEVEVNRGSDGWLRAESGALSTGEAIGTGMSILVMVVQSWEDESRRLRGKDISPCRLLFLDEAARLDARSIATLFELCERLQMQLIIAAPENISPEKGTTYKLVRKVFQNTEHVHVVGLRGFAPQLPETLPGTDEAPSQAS
Nature of the experiment: SEC.

For experiment [4], the target named is B4. The experiment in a line: SEC.

B1: Scc2 residues 151-1493 (S. cerevisiae cohesin loader), recombinant (domain or fragment)
chain: SNAGNLSFNDNSSNKKTKTSTGVTMTQANLAEQYLNDLKNILDIVGFDQNSAEIGNIEYWLQLPNKKFVLTTNCLTKLQMTIKNITDNPQLSNSIEITWLLRLLDVMVCNIKFSKSSLKMGLDDSMLRYIALLSTIVLFNIFLLGKNDSNLHRESYIMEPVNFLSDLIESLKILTIEYGSLKIEFDTFQEALELLPKYIRNGPFLDDNVTAKLVYIFSDLLMNNDIEATTNIQFQSFWDNVKRISSDILVSLFGSFDQQRGFIIEELLSHIEKLPTKRIQKKLRKVGNQNIYITDFTFTLMSMLENINCYSFCNQMKDIAPENIDLLKNEYKKQEEFLFNIVEHINDTILERFFKNPSALRYVIDNFVQDLLLLISSPQWPVTEKILSSLLKRLLSVYSPSMQVSANIETICLQLIGNIGSTIFDIKCSTRDHEDNNLIKMINYPETLPHFFKSFEECIAYNETIKCRRSATRFLWNLRLGTILILEEYTKDAKEQIITVDNELKKILEQIKDGGLGPELENREADFSTIKLDYFSILHAFELLNLYDPYLKLILSLLAKDKIKLRSTAIKCLSMLASKDKVILSNPMVKETIHRRLNDSSASVKDAILDLVSINSSYFEFYQQINNNYNDDSIMVRKHVLRINEKMYDETNDIVTKVYVIARILMKIEDEEDNIIDMARLILLNRWILKVHEVLDQPEKLKEISSSVLLVMSRVAIMNEKCSQLFDLFLNFYLLNKEAHSKEAYDKITHVLTILTDFLVQKIVELNSDDTNEKNSIVDKQNFLNLLAKFADSTVSFLTKDHITALYPYMVSDEKSDFHYYILQVFRCTFEKLANFKQKFLYDLETTLLSRLPKMNVREIDEAMPLIWSVATHRHDTARVAKACSSCLSHLHPYINKANNEEAAIVVDGKLQRLIYLSTGFARFCFPKPSNDKIAFLQEGETLYEHITKCLLVLSKDKITHVIRRVAVKNLTKLCGNHPKLFNSRHVLHLLDKEFQSDQLDIKLVILESLYDLFLLEERKSVRNTGVNSTLSSNSILKKKLLKTNRVEFANDGVCSALATRFLDNILQLCLLRDLKNSLVAIRLLKLILKFGYTNPSHSIPTVIALFASTSQYIRHVAYELLEDLFEKYETLVFSSLSRGVTKAIHYSIHTDEKYYYKHDHFLSLLEKLCGTGKKNGPKFFKVLKRIMQSYLDDITDLTSTNSSVQKSIFVLCTNISNITFVSQYDLVSLLKTIDLTTDRLKEVIMDEIGDNVSSLSVSEEKLSGIILIQLSLQDLGTYLLHLYGLRDDVLLLDIVEESELKNKQLPAKKPDISKFSAQLENIEQYSSNGKLLTYFRKHVKDT
Turning to B1, in experiment [1], the binding result is given as “binds”.

B2: MukE (E. coli KITE protein of MukBEF), untagged, from the co-expressed holocomplex (natural protein)
chain: MSSTNIEQVMPVKLAQALANPLFPALDSALRSGRHIGLDELDNHAFLMDFQEYLEEFYARYNVELIRAPEGFFYLRPRSTTLIPRSVLSELDMMVGKILCYLYLSPERLANEGIFTQQELYDELLTLADEAKLLKLVNNRSTGSDVDRQKLQEKVRSSLNRLRRLGMVWFMGHDSSKFRITESVFRFGADVRAGDDPREAQRRLIRDGEAMPIENHLQLNDETEENQPDSGEEE
With B2, the binding result in experiment [2] and in experiment [3] was “binds” throughout.

B3: MukE (E. coli) made as His6-SUMO-MukE for the MukEF preparation (natural protein)
chain: MSSTNIEQVMPVKLAQALANPLFPALDSALRSGRHIGLDELDNHAFLMDFQEYLEEFYARYNVELIRAPEGFFYLRPRSTTLIPRSVLSELDMMVGKILCYLYLSPERLANEGIFTQQELYDELLTLADEAKLLKLVNNRSTGSDVDRQKLQEKVRSSLNRLRRLGMVWFMGHDSSKFRITESVFRFGADVRAGDDPREAQRRLIRDGEAMPIENHLQLNDETEENQPDSGEEE
On to B3, for which, in experiment [4], the binding result is reported as “binds”.
For B4, the binding result in experiment [3] was “binds”.

B5: MukEF complex (E. coli) (complex)
chain 1: MSSTNIEQVMPVKLAQALANPLFPALDSALRSGRHIGLDELDNHAFLMDFQEYLEEFYARYNVELIRAPEGFFYLRPRSTTLIPRSVLSELDMMVGKILCYLYLSPERLANEGIFTQQELYDELLTLADEAKLLKLVNNRSTGSDVDRQKLQEKVRSSLNRLRRLGMVWFMGHDSSKFRITESVFRFGADVRAGDDPREAQRRLIRDGEAMPIENHLQLNDETEENQPDSGEEE
chain 2: MSEFSQTVPELVAWARKNDFSISLPVDRLSFLLAVATLNGERLDGEMSEGELVDAFRHVSDAFEQTSETIGVRANNAINDMVRQRLLNRFTSEQAEGNAIYRLTPLGIGITDYYIRQREFSTLRLSMQLSIVAGELKRAADAAEEGGDEFHWHRNVYAPLKYSVAEIFDSIDLTQRLMDEQQQQVKDDIAQLLNKDWRAAISSCELLLSETSGTLRELQDTLEAAGDKLQANLLRIQDATMTHDDLHFVDRLVFDLQSKLDRIISWGQQSIDLWIGYDRHVHKFIRTAIDMDKNRVFAQRLRQSVQTYFDEPWALTYANADRLLDMRDEEMALRDEEVTGELPEDLEYEEFNEIREQLAAIIEEQLAVYKTRQVPLDLGLVVREYLSQYPRARHFDVARIVIDQAVRLGVAQADFTGLPAKWQPINDYGAKVQAHVIDKY
In the case of B5, the binding result in experiment [3] is “binds”.

B6: Scc3 (S. cerevisiae cohesin HAWK protein), recombinant (natural protein)
chain: MTAVRRSTRIRTKSQVIEEDYDDEQNTSAQHVESDKITAKTQHEEEEEQDTGESEESSSEDDYEDQDDDDYVDTATAKRKSRKRKPKSASNTSSKRQKKKPTSAQKSAVSHAPAYHRSKKDQDQYLEIAKDFQPTELFDILSTSEDVSIEELLREWLETYSENRDKFLQEFINLLLNCCGSVARVEDHDVHSNESSNETIGEIQLLFQRQKLHEFYLLISKENKKRKNFKMGPLYQNFAEFMTKLLEVANDLQLLYVESDEDDTQIVTGNLVLDLLTWLSSFSVCKIRCFRYISTLTLYLFQDYLTQQAVNLEKNYLAKLSKQLSLEEKKKRPNNKTLEKLESTIAETQGSKVVIDSIIDNIVKLCFVHRYKDVSDLIRSESMLHLSIWIKNYPEYFLKVTFLKYFGWLLSDNSVSVRLQVTKILPHLIIQNHNSKSTDNSAIRQVFERFKTKILEVAIRDVNLDVRIHSIQVLTEASSLGYLDDSEILIISSLMFDEEFDPFKTSSFNKRSKFLSTVAKFLARVIKEKFDEFIKTHEDLPKEVDGLEVGPVVQVGIFIKILNDSLIYHLKDCAEVDSRTKIRMLTQAAEFLSPYISTHLKTICNLLISDTESNELIQKLQNSANNNSDDEDVDDEELDITPLFPIDRNSTILYLNVFHGLCAGANNPKIQTKDSVKEIVLPLFYDLLNAASIESADILCPLLESFITFSLDDWISIGYETELKKITDKTIKAFMDSTIGNSKVDMKYDIFAKFIHHIHHFEKKELQEKFLNQIATLKIHLKKFLQEKMDPNNSRDDYKDLTCSLYELYINKLTILGRDYPIEVDEELLQLFLNNFVSRIPIMFQDFDDSTAQEINFKMLVLLATWNLEKWREIIEKVRDYENSISKDLRSVWKPIAAIIGRLNTLVISLAATNETFENINSLFYLKWSACTSLMDIIVAIKIFELKLPADATTWRYSMSEQFPFYLHDNASKVLLKIFLYLESLFAKQVDVQLERVADEDANLNDLPETGFFENIETEFLLFTVKLKGLMKLNILDERFASRVALNKEKLGPLFKKIVDDTIMENPEPNKKNIQKAKSNQTQREKAPLQPNSERETDHANTENNDPDIPMTIDLEPIEESSQNNSELAPIEEHPTVVDAIDNSDEITQD
Turning to B6, the binding result in experiment [1] is given as “binds”.

Source of the values: paper doi:10.1101/464701 (bioRxiv, 2018).
